One block for each molecule: values may come before it.
How the values were obtained:
Test in all cases: SEC-MALS; Superdex 200 5/150 GL; 100 mM Tris-HCl pH 8.0, 150 mM NaCl, 1 mM EDTA, 10% (v/v) glycerol; 0.15 mL/min; 90 µL of each sample at 1.6 mg/mL injected
[1] = molecular target: Plastid-specific ribosomal protein 1a (PSRP1a) of Physcomitrium patens, mature form (Physcomitrium patens)
[2] = molecular target: Plastid-specific ribosomal protein 1b (PSRP1b) of Physcomitrium patens, mature form (Physcomitrium patens)
[3] = molecular target: the molecule itself

stoichiometry N [1]: 2
Molecule: Plastid-specific ribosomal protein 1a (PSRP1a) of Physcomitrium patens, mature form (natural protein)

stoichiometry N [2]: 2
Molecule: Plastid-specific ribosomal protein 1b (PSRP1b) of Physcomitrium patens, mature form (natural protein)

B1: Bacillus subtilis long-form hibernation-promoting factor (BsHPF) (natural protein, UniProt P28368 1-189, looked up)
chain: MNYNIRGENIEVTPALKDHVERKIGKLERYFDHSVDADVNVNLKFYNDKESKVEVTIPMTDLALRSEVHNEDMYNAIDLATNKLERQIRKHKTKVNRKFREQGSPKYLLANGLGSDTDIAVQDDIEEEESLDIVRQKRFNLKPMDSEEAILQMNMLGHNFFVFTNAETNLTNVVYRRNDGKYGLIEPTE
notes: Long-form hibernation-promoting factor (LHPF) of Bacillus subtilis, amplified from genomic DNA; predicted mass of the construct 24.2 kDa; Dimeric control protein of the SEC-MALS experiment; also called Bacillus subtilis LHPF
stoichiometry N [3]: 2

— PMC12567329, “Chloroplast Hibernation-Promoting Factor PSRP1 Prevents Ribosome Degradation Under Darkness Independently of 100S Dimer Formation” (Plants, 2025)
